How the values were obtained:
[1] = molecular target: T1, enriched paired helical filament tau protein (ePHF) (human, UniProt P10636 2-758); assay: cell-based or functional assay
[2] = molecular target: T1, enriched paired helical filament tau …; assay: direct ELISA, ePHF coated
Experimental: (§1) These candidate antibodies were analyzed for binding to ePHF and specificity for ePHF over wild type tau by direct ELISA.
(§2) For direct ePHF and wildtype tau ELISA, plates were first coated with ePHF or wild type tau. Antigen solutions were prepared in PBS and 50 µL were pipetted into each well. Plates were covered and incubated for one hour at 37° C. or overnight at 4° C. Plates were then washed and blocked by addition of 150 µl of blocking buffer to each well and incubated one hour at room temperature. Plates were then washed before addition of serially diluted candidate antibody samples prepared in blocking buffer. Detection of candidate antibody binding was carried out by washing plates and adding a solution of enzyme-labeled secondary antibody in blocking buffer to each well. Secondary antibody binding was detected by addition of substrate and spectrophotometric analysis of resulting reaction product.

[3] = molecular target: T1, enriched paired helical filament tau …; assay: follow up analysis, method not stated
wild type tau = wild type tau (UniProt P10636-8 1-441, limits assumed); assay: direct ELISA, wild type tau coated
Sequence of wild type tau (P10636 other isoform, or with tags, fused parts or gaps limits assumed): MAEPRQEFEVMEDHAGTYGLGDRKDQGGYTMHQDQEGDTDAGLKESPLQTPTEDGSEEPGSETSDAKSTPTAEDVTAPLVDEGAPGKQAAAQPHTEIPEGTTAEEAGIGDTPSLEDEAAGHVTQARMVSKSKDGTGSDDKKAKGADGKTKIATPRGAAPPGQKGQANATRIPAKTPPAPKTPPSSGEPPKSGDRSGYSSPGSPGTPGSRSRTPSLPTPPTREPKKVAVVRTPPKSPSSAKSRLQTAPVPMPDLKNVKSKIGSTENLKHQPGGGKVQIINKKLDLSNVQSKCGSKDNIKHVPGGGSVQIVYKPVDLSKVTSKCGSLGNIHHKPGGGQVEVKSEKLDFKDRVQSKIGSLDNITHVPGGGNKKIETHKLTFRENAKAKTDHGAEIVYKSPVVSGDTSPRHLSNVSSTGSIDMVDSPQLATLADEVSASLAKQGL
Experimental: as §1, §2

iPHF = iPHF (UniProt P10636-8 1-441); assay: Octet, epitope binning of Example 4
Experimental: Variable domain nucleic acid sequences from antibodies obtained from immunizations described above were used to prepare recombinant mouse IgG antibodies for iPHF affinity measurement and epitope binding competition analysis. Studies were carried out by Octet (ForteBio, Menlo Park, CA) analysis.
For epitope binding competition analysis, a process also referred to as “epitope binning,” candidate antibodies were analyzed using a sandwich assay format, wherein a first “capture” antibody is attached to the Octet biosensor before antigen and a second antibody are sequentially introduced and biosensor readings are used to determine whether one or both antibodies bind to each antigen. […] PT3, IPN002, or C10.2 antibodies were used as capture antibodies and immobilized on AMC biosensor tips as described above. Biosensor tips were then washed and blocked in 10 µg/ml MOPC. After a further wash, biosensor capture antibodies were associated with iPHF. Candidate antibodies were then analyzed for binding to iPHF. MOPC (non antigen-specific control) and PT3, IPN002, or C10.2 antibodies (in each case matching the biosensor antibody) were used as directly competing controls.

T1 sequence (P10636 other isoform, or with tags, fused parts or gaps limits assumed): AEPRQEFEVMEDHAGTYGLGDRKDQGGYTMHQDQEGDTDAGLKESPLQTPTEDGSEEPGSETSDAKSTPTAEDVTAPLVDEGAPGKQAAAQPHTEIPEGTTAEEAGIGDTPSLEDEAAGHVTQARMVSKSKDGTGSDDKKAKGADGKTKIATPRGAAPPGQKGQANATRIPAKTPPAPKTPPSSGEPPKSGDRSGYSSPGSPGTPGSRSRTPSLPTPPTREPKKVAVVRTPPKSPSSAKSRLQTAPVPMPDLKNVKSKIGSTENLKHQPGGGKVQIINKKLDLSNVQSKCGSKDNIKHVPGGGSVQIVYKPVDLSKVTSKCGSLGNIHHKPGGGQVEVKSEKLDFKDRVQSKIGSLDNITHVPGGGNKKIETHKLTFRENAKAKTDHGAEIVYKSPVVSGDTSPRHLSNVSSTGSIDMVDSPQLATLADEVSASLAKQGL

Row | Binder | Average IC50 (nM), tau aggregation inhibition, immunodepletion assay with tau RD Biosensor cells [1] | EC50 [2] | other results
1 | V0023 (antibody, mouse IgG1, V domains shown) VH: QVQLQQPGTELVKPGASVKLSCKASGYTFTIFWMHWVKQRPGHGLEWIGKINPNNGGGDYNEKFKSKATLTVDKSSTTAYLQLSSLTSEDSAVYYCARGTGTGAMDYWGQGTSVTVSS VL: DVVMTQTPLSLPVSLGDHASISCRSSQSLVHSNGITHLYWYLQRPGQTPKLLIYRVSNRFSGVPDRFSGSGSGTDFTLKISSVEAEDLGVYFCFQGTHVPRTFGGGTKLEIE | 16.5 nM | 0.11 nM | selectivity for ePHF over wild type tau [3]: > 100 fold
2 | V0024 (antibody, mouse IgG1, V domains shown) VH: QVQLQQPGTELVKPGASVKLSCKASGYTFTRFWMHWVKQRPGQGLEWIGNINPNNGGTDNNERFKSKATLTVDRSSSTAYMQLSSLTSEDSAVYYCARGTGTGAMDYWGQGTSVTVSS VL: DVVMTQTPLSLPVSLGDQASISCRSSQSLVHSNGNTHLYWYLQKPGQSPKLLIYRVSSRFSGVPDRFSGSGSGTDFTLKISRVEAEDLGVYFCFQGTHVPRTFGGGTKLEIK | 18.6 nM | – | –
3 | V0025 (antibody, mouse IgG1, V domains shown) VH: QVQLQQPGTELVKPGASVKLSCKASGFTFTRFWMHWVKQRPGQGLEWIGNINPNNGETNYNEKFKIKAALTVDKSSTTAYMQLSSLTSEDSAVYSCARGTGTGAMDYWGQGTSVTVSS VL: DVVMTQTPLSLPVSLGDQASISCRSSQSLVHSTGNTYLYWYLQKPGQSPKLLIYRVSTRFSGVPDRFSGSGSGTDFTLKINRVEAEDLGVYFCFQGTHVPRTFGGGTKLEIK | – | 0.098 nM | –
4 | V0022 (antibody, mouse IgG1, V domains shown) VH: QVQLQQPGTELVKPGSSVNLSCKASGFTFTRYWMHWVKERPGHGLEWIGNINPNNGGTDFNEKFKNKATLTVHKSSTTVFIQLSSLTSEDSAVYYCARGTGTGAMDYWGQGTSVTVSS VL: DVVMTQTPLSLPVSLGDQASISCRSSQSLVHNNGITYLYWYLQKPGQSPKLLIYRVSNRFSGVPDRFGGSGSGTDFTLKISRVEAEDLGVYFCFQGTHVPRTFGGGTKLEIK | 18.2 nM | 0.07 nM | selectivity for ePHF over wild type tau [3]: > 100 fold
5 | V00018 (antibody, mouse IgG1, V domains shown) VH: QVQLQQPGADLVRPGSSVKLSCKASGYTFTRSWMHWVKQRPIEGLEWIGNIDPSDSEAHYNQKFKDKATLTVDKFSNTAYMQLSSLTSEDSAVYYCARWDDFYVAYWGQGTLVTVSA VL: DIVLTQSPASLAVSLGQRATISCRASKSVSTSGYSYIHWYQQKPGQPPKLLIYLASNLESGVPARFSGSGSGTDFTLNIHPVEEEDAATYYCQHSRELPWTFGGGTKLEIK | – | 0.718 nM | –
6 | V0035 (antibody, mouse IgG1, V domains shown) VH: EAQLQQSGAELVRPGSSVKMSCKTSGYTFTSYGINWVKQRPGQGLEWIGYIYIRNGNTAYNEKFKGKATVTSDTSSSTVYMQLSSLTSEDSAIYFCAGTGTSFTYWGQGTLVTVSA VL: not shown | – | 0.315 nM | –
7 | V0034 (antibody, mouse IgG1, V domains shown) VH: EVQLQQSGAELVRPGSSVKMSCKTSGYTFTSYGINWVKQRPGQGLEWVGYIYIRDGNTAYNEKFKGKATVTSDTSSSTVYMQLSSLTSEDSAIYFCAGTGTSFAYWGQGTLVTVSA VL: not shown | – | 0.351 nM | –
8 | V00014 (antibody, mouse IgG1, V domains shown) VH: QAYLQQSGAELVRPGASVKMSCKASGYTFTSYNMHWVKQTPRQGLEWIGAIYPGNGDTSYNQKFKGKATLTVDKSSSTAYMQLSSLTSEDSAVYFCARGGMDYWGQGTSVTVSS VL: DVVMTQTPLSLPVSLGDQASISCRSSQSLVHSNGNTYLHWYLQKPGQSPKLLIYKVSNRFSGVPDRFSGSGSGTDFTLKISRVEAEDLGVYFCSQSTHVPYTFGGGTKLEIK | – | – | binding result (wild type tau): no binding; binding result (iPHF): no binding
9 | V2004 (antibody, mouse IgG1, V domains shown) VH: QVQLQQSGAELARPGASVKLSCKSSGYIFSSYWMQWVKQRPGQGLEWIGAIYPGDGDTRYTPKFKGKATLTADKSSSTAYMQLTSLASEDSAVYYCAKGYSQSFDYWGQGTTLTVSS VL: not shown | – | – | binding result (wild type tau): no binding
